The test system of series [1] is HeLa Kyoto. Put plainly: solubility in G1/S (NP-40 vs SDS abundance) (log2 ratio); higher = more soluble. The note with it: cell cycle stage: G1/S.
The subject of series [2] is HeLa Kyoto. Description: melting temperature (median over replicates), in situ; higher = more thermally stable.
Series [3] deals with HeLa Kyoto. Put plainly: solubility change mitosis vs G1/S (difference of NP-40 vs SDS log2 ratios) (log2 ratio difference); higher = more soluble in mitosis.
The subject of series [4] is HeLa Kyoto. Put plainly: thermal stability score vs G1/S (z-score of summed log2 fold changes over temperatures); higher = more thermally stable than in G1/S.
[5] abbreviates: cell cycle stage: early G1 (4.5 h after nocodazole release).
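Wherever melting temperature (median over replicates), in situ is given: HeLa Kyoto cells synchronized by double thymidine or nocodazole block, proteins quantified by TMT10plex mass spectrometry, three independent biological replicates.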
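Wherever solubility change mitosis vs G1/S (difference of NP-40 vs SDS log2 ratios) is given: synchronized HeLa Kyoto cells (double thymidine block for G1/S, nocodazole release for mitosis), protein amounts in NP-40 versus SDS lysates quantified by mass spectrometry, three biological replicates.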
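Wherever solubility in G1/S (NP-40 vs SDS abundance) is given: HeLa Kyoto cells arrested at G1/S by double thymidine block, proteins quantified by TMT10plex mass spectrometry in mild NP-40 versus SDS extracts, three biological replicates.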
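Wherever thermal stability score vs G1/S (z-score of summed log2 fold changes over temperatures) is given: synchronized HeLa Kyoto cells, proteins quantified by TMT10plex mass spectrometry, three biological replicates, mitosis taken 0.5 h after nocodazole release, G1/S directly after double thymidine block.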

Turning to “MATDELATKLSRRLQMEGEGGGETPEQPGLNGAAAAAAGAPDEAAEALGSADCELSAKLLRRADLNQGIGEPQSPSRRVFNPYTEFKEFSRKQIKDMEKMFKQYDAGRDGFIDLMELKLMMEKLGAPQTHLGLKNMIKEVDEDFDSKLSFREFLLIFRKAAAGELQEDSGLCVLARLSEIDVSSEGVKGAKSFFEAKVQAINVSSRFEEEIKAEQEERKKQAEEMKQRKAAFKELQSTFK [EFHD2]”, the “solubility in G1/S (log2)” value in the series on HeLa Kyoto [1] was determined as 0.681. Also, the melting temperature in the series on HeLa Kyoto [2] (cell cycle stage: G1/S) was 52.5 °C; in the series with HeLa Kyoto [2] (cell cycle stage: mitosis), 53.7 °C. For the same sequence, the “solubility change mitosis (log2)” value in the series with HeLa Kyoto [3] was 0.139. In addition, the thermal stability score with HeLa Kyoto [4] (setting [5]) is 1.76; in the series on HeLa Kyoto [4] (cell cycle stage: mitosis), 0.882.
For the sequence “MAVPGVGLLTRLNLCARRRTRVQRPIVRLLSCPGTVAKDLRRDEQPSGSVETGFEDKIPKRRFSEMQNERREQAQRTVLIHCPEKISENKFLKYLSQFGPINNHFFYESFGLYAVVEFCQKESIGSLQNGTHTPSTAMETAIPFRSRFFNLKLKNQTSERSRVRSSNQLPRSNKQLFELLCYAESIDDQLNTLLKEFQLTEENTKLRYLTCSLIEDMAAAYFPDCIVRPFGSSVNTFGKLGCDLDMFLDLDETRNLSAHKISGNFLMEFQVKNVPSERIATQKILSVLGECLDHFGPGCVGVQKILNARCPLVRFSHQASGFQCDLTTNNRIALTSSELLYIYGALDSRVRALVFSVRCWARAHSLTSSIPGAWITNFSLTMMVIFFLQRRSPPILPTLDSLKTLADAEDKCVIEGNNCTFVRDLSRIKPSQNTETLELLLKEFFEYFGNFAFDKNSINIRQGREQNKPDSSPLYIQNPFETSLNISKNVSQSQLQKFVDLARESAWILQQEDTDRPSISSNRPWGLVSLLLPSAPNRKSFTKKKSNKFAIETVKNLLESLKGNRTENFTKTSGKRTISTQT [MTPAP]”, in the series on HeLa Kyoto [1], the “solubility in G1/S (log2)” value is -0.331. The melting temperature in the series with HeLa Kyoto [2] (cell cycle stage: G1/S) stood at 51 °C; with HeLa Kyoto [2] (cell cycle stage: mitosis), 49.8 °C. For the same sequence, the “solubility change mitosis (log2)” value with HeLa Kyoto [3] was 0.114. For the same sequence, the values for the thermal stability score in the series with HeLa Kyoto [4] (setting [5]) and in the series on HeLa Kyoto [4] (cell cycle stage: mitosis) were 0.65 and 1.8, respectively.
Turning to “MALVASVRVPARVLLRAGARLPGAALGRTERAAGGGDGARRFGSQRVLVEPDAGAGVAVMKFKNPPVNSLSLEFLTELVISLEKLENDKSFRGVILTSDRPGVFSAGLDLTEMCGRSPAHYAGYWKAVQELWLRLYQSNLVLVSAINGACPAGGCLVALTCDYRILADNPRYCIGLNETQLGIIAPFWLKDTLENTIGHRAAERALQLGLLFPPAEALQVGIVDQVVPEEQVQSTALSAIAQWMAIPDHARQLTKAMMRKATASRLVTQRDADVQNFVSFISKDSIQKSLQMYLERLKEEKG [ECI1]”, the “solubility in G1/S (log2)” value with HeLa Kyoto [1] was 0.58. The melting temperature in the series on HeLa Kyoto [2] (cell cycle stage: G1/S) was determined as 56.8 °C; with HeLa Kyoto [2] (cell cycle stage: mitosis), 58.4 °C. In the series with HeLa Kyoto [3], the “solubility change mitosis (log2)” value worked out at 0.043. Besides, the thermal stability score in the series on HeLa Kyoto [4] (setting [5]) was -0.579; with HeLa Kyoto [4] (cell cycle stage: mitosis) it was -2.1.
Consider “MEDHQHVPIDIQTSKLLDWLVDRRHCSLKWQSLVLTIREKINAAIQDMPESEEIAQLLSGSYIHYFHCLRILDLLKGTEASTKNIFGRYSSQRMKDWQEIIALYEKDNTYLVELSSLLVRNVNYEIPSLKKQIAKCQQLQQEYSRKEEECQAGAAEMREQFYHSCKQYGITGENVRGELLALVKDLPSQLAEIGAAAQQSLGEAIDVYQASVGFVCESPTEQVLPMLRFVQKRGNSTVYEWRTGTEPSVVERPHLEELPEQVAEDAIDWGDFGVEAVSEGTDSGISAEAAGIDWGIFPESDSKDPGGDGIDWGDDAVALQITVLEAGTQAPEGVARGPDALTLLEYTETRNQFLDELMELEIFLAQRAVELSEEADVLSVSQFQLAPAILQGQTKEKMVTMVSVLEDLIGKLTSLQLQHLFMILASPRYVDRVTEFLQQKLKQSQLLALKKELMVQKQQEALEEQAALEPKLDLLLEKTKELQKLIEADISKRYSGRPVNLMGTSL [CDK5RAP3]”, for which the “solubility in G1/S (log2)” value in the series on HeLa Kyoto [1] turned out to be 0.203. The results for the melting temperature with HeLa Kyoto [2] (cell cycle stage: G1/S) and with HeLa Kyoto [2] (cell cycle stage: mitosis) were 49.5 °C and 49.4 °C, respectively. In addition, the “solubility change mitosis (log2)” value with HeLa Kyoto [3] was -0.0399. Besides, the thermal stability score in the series on HeLa Kyoto [4] (setting [5]) amounted to 1.2; in the series on HeLa Kyoto [4] (cell cycle stage: mitosis), 2.62.
With “MNQKLLKLENLLRFHTIYRQLHSLCQRRALRQWRHGFSSAYPVWTAQLCAWPWPTDVLTGAALSQYRLLVTKKEEGPWKSQLSSTKSKKVVEVWIGMTIEELARAMEKNTDYVYEALLNTDIDIDSLEADSHLDEVWIKEVITKAGMKLKWSKLKQDKVRKNKDAVRRPQADPALLTPRSPVVTIMGHVDHGKTTLLDKFRKTQVAAVETGGITQHIGAFLVSLPSGEKITFLDTPGHAAFSAMRARGAQVTDIVVLVVAADDGVMKQTVESIQHAKDAQVPIILAVNKCDKAEADPEKVKKELLAYDVVCEDYGGDVQAVPVSALTGDNLMALAEATVALAEMLELKADPNGPVEGTVIESFTDKGRGLVTTAIIQRGTLRKGSVLVAGKCWAKVRLMFDENGKTIDEAYPSMPVGITGWRDLPSAGEEILEVESEPRAREVVDWRKYEQEQEKGQEDLKIIEEKRKEHKEAHQKAREKYGHLLWKKRSILRFLERKEQIPLKPKEKRERDSNVLSVIIKGDVDGSVEAILNIIDTYDASHECELELVHFGVGDVSANDVNLAETFDGVIYGFNVNAGNVIQQSAAKKGVKIKLHKIIYRLVEDLQEELSSRLPCAVEEHPVGEASILATFSVTEGKKKVPVAGCRVQKGQLEKQKKFKLTRNGHVIWKGSLTSLKHHKDDISIVKTGMDCGLSLDEDNMEFQVGDRIVCYEEKQIQAKTSWDPGF [MTIF2]”, in the series on HeLa Kyoto [1], the “solubility in G1/S (log2)” value is -0.146. Further, the melting temperature was 49.7 °C in the series on HeLa Kyoto [2] (cell cycle stage: G1/S) and 49.1 °C with HeLa Kyoto [2] (cell cycle stage: mitosis). Also, in the series with HeLa Kyoto [3], the “solubility change mitosis (log2)” value was -0.0734. Also, the thermal stability score in the series on HeLa Kyoto [4] (setting [5]) was -0.325; with HeLa Kyoto [4] (cell cycle stage: mitosis), 0.122.

The values above are taken from the supplement of paper PMC5998384.
